In patent US7947807B2, “Method for obtaining G protein-coupled receptor (GPCR) diffraction-quality crystals employing a monoclonal antibody that binds to the third intracellular loop (IL3)” (The Board of Trustees of the Leland Stanford Junior …, priority 2007, dated 2011):
“Also recorded” adds a separate entry of the source. Read-outs that look alike come from different tables or passages of the source. Blank lines part the entries; values can stand above or below the molecule they belong to.

Assays:
β2AR [1] = target: T1, β2AR (Homo sapiens, UniProt P07550); assay: Saturation and competition binding assays on purified β2AR reconstituted in phospholipid vesicles, with and without prebound Fab 5; details: saturation binding, read-out: [3H]dihydroalprenolol Kd ± S.E.
T1 construct: hexahistidine (C); made in house; host or cells: Sf9 insect cells
Experimental: The effect of Fab binding on ligand binding properties and on agonist-induced three dimensional changes was determined.

β2AR-TMR = target: T2, β2AR-TMR (Homo sapiens, UniProt P07550); assay: Fluorescence of β2AR labeled at C265 with tetramethylrhodamine (β2AR-TMR), antibody dose-response; format: biochemical
T2 construct: made in house
Experimental: FIGS. 2A and 2B. Binding characteristics of β2AR-specific antibodies. 2A, Dot-blots showing binding of nine β2AR specific antibodies to denatured receptor. Equal amounts of β2AR denatured with SDS and β-mercaptoethanol were spotted in triplicate on nitrocellulose strips. The strips were blocked with 5% non-fat dry milk in PBS-Tween (0.05% Tween-20) and then probed with […] of the indicated antibodies diluted in blocking buffer. Binding of the primary antibody to the denatured β2AR was detected with an Alexa-688 labeled anti-mouse secondary antibody. The top panel is a graphical representation of the average dot intensity from three independent experiments. The lower panel is a representative experiment. […] 2B, Dose-response curves showing the effect on increasing amounts of antibodies 4-9 on the fluorescence of β2AR labeled at C265 with tetramethylrhodamine (β2AR-TMR). β2AR-TMR was diluted to 4 nM in 500 μL of buffer consisting of 0.1% dodecylmaltoside, 100 mM sodium chloride, and 20 mM HEPES buffer (pH 7.5). […]
To select for antibodies that may interact with IC3, we examined the effect of antibody binding on the fluorescence of β2AR labeled at C265 (at the cytoplasmic end of TM6) with tetramethylrhodamine. […] As such, antibodies binding to IC3 may stabilize a specific conformation of TM5 relative to TM6 that would be detected by a change in tetramethylrhodamine fluorescence.

denatured β2AR = target: T3, denatured β2AR (Homo sapiens, UniProt P07550); assay: Dot-blot binding of antibodies to SDS-denatured β2AR; details: β2AR denatured with SDS, spotted on nitrocellulose
T3 construct: hexahistidine (C); made in house; host or cells: Sf9 insect cells
Experimental: FIGS. 2A and 2B. Binding characteristics of β2AR-specific antibodies. 2A, Dot-blots showing binding of nine β2AR specific antibodies to denatured receptor. Equal amounts of β2AR denatured with SDS and β-mercaptoethanol were spotted in triplicate on nitrocellulose strips. The strips were blocked with 5% non-fat dry milk in PBS-Tween (0.05% Tween-20) and then probed with […] of the indicated antibodies diluted in blocking buffer. Binding of the primary antibody to the denatured β2AR was detected with an Alexa-688 labeled anti-mouse secondary antibody. The top panel is a graphical representation of the average dot intensity from three independent experiments. The lower panel is a representative experiment. The binding of all 9 antibodies to denatured β2AR is reduced compared to M1 binding to the linear Flag epitope. 2B, Dose-response curves showing the effect on increasing amounts of antibodies 4-9 on the fluorescence of β2AR labeled at C265 with tetramethylrhodamine (β2AR-TMR). β2AR-TMR was diluted to 4 nM in 500 μL of buffer consisting of 0.1% dodecylmaltoside, 100 mM sodium chloride, and 20 mM HEPES buffer (pH 7.5). Data represent an n of 3.
Antibodies were screened for binding to a three dimensional epitope on the three-dimensional surface on the IC3 of the native β2AR, rather than a flexible linear epitope. […]

[2] = target: T4, flag tagged β2AR stably expressed in HEK-293 cells (Homo sapiens, UniProt P07550); assay: Immunofluorescence staining of HEK-293 cells stably expressing flag tagged β2AR, nonpermeabilized or permeabilized; format: cell-based; details: compared with M1 antibody
T4 construct: expressed in transfected cells
Experimental: HEK-293 cells stably expressing a flag tagged version of the β2AR were cultured on coverslips and processed for immunocytochemistry. After fixation, with 4% paraformaldehyde, the cells were washed and blocked with 2.5% goat serum in PBS alone (nonpermeabilized) or with 0.5% NP-40 in PBS (permeabilized). The cells were incubated with the β2AR specific antibody indicated on the left side of the figure. After several washes, the β2AR monoclonal antibodies were detected with a Texas Red conjugated anti-mouse secondary antibody. […] The images shown are representative of at least 3 experiments. All images were acquired using an Axioplan 2 microscope (Carl Zeiss MicroImaging), fitted with a camera (RTE/CCD-1300-Y/HS; Roper Scientific) controlled using IPLab software (BD Bioscience).
The antibodies were characterized as binding the intracellular or extracellular surface of the receptor in immunofluorescence experiments with HEK-293 cells stably expressing an N-terminally FLAG-tagged version of the β2AR. Antibodies that recognize an intracellular epitope only stain permeabilized cells.

β2AR [3] = target: T5, β2AR (Homo sapiens, UniProt P07550, A271C/I135W); assay: Bimane fluorescence assay of agonist-induced conformational change (β2AR labeled with monobromobimane at H271C); format: biochemical; details: 1 μM Fab5, 100 μM isoproterenol, 15 minutes
T5 construct: made in house
Source text: (§1) FIGS. 3A and 3B. […] The fragmented β2AR was visualized using an Alexa-680 labeled M1 antibody against the N-terminal Flag epitope. […] The loop is marked with MW indicators corresponding to N-terminal fragments containing the Flag epitope. Residues sensitive to trypsin digest are shown in red. 3B, The change in the bimane fluorescence of β2AR labeled with monobromobimane at H271C at the cytoplasmic end of TM6. Bimane fluorescence is quenched by W135 at the cytoplasmic end of TM3 upon agonist binding^9. […] Fluorescence intensity was corrected for background fluorescence from buffer and ligands in all experiments. The data are the mean±S.E. of two independent experiments performed in triplicate.
Purified receptor was reacted with 1:1 equivalent of monobromobimane (mBBr, Invitrogen) in buffer A (100 mM NaCl, 20 mM HEPES, pH 7.5, 0.1% dodecyl maltoside) and incubated overnight on ice in the dark. The fluorophore-labeled receptor was purified right before use by gel filtration on a desalting column equilibrated with buffer B. Fluorescence spectroscopy experiments were performed on a Spex FluoroMax-3 spectrofluorometer (Jobin Yvon Inc, NJ) with photon counting mode by using an excitation and emission bandpass of 4 nm. All experiments were performed at 25° C. For emission scans, excitation was set at 370 nm and emission was measured from 430-530 nm with an integration time of 1 s/nm. […]

β2AR [4] = target: T1, β2AR; assay: Coupling of purified β2AR to purified G protein; format: biochemical; details: data not shown
β2AR [5] = target: T1, β2AR; assay: Limited tryptic digestion of purified β2AR with and without Fab 5, Western blot; format: biochemical; details: preincubated with Fab 5; M1 anti-FLAG Western blot
Source text: as §1
Cleavage of purified β2AR with trypsin yielded two bands with molecular weights of approximately 27 and 29 kDa on a Western blot probed with the M1 anti-FLAG antibody (FIG. 3A). The sizes of these fragments indicate trypsin digestion at two of ten potential sites in IC3 (FIG. 3A).

Molecule: CCCc1ccccc1OCC(O)CNC(C)C (stereo not shown) [[^3H]dihydroalprenolol]
- Kd (β2AR [1]; β2AR without prebound Fab 5): 1.02 ± 0.09 nM
- Kd (β2AR [1]; β2AR-Fab5 (prebound Fab 5)): 1.08 ± 0.05 nM

- immunostaining on binding to native receptor in fixed cells [2]: comparable to M1
- effect on agonist-induced bimane fluorescence change (β2AR [3]): not affected
B1: antibody 5: mouse monoclonal antibody binding a three dimensional epitope on the third intracellular loop of β2AR (protein)
light: DIKMTQSPSSMYASLGERVTITCKASQDINSYLSWFQQKPGKSPKTLIYRANRLVDGVPSRFIGTGSGQDYSLTISSLDYEDMGIYYCLQYDEFPYTFGGGTKLEIKRADAAPTVSIFPPSSEQLTSGGASVVCFLNNFYPKDINVKWKIDGSERQNGVLNSWTDQDSKDSTYSMSSTLTLTKDEYERHNSYTCEATHKTSTSPIVKSFNRNEC
heavy: EVQLQQSGAELARPGASVKLSCKASGYIFTDYYINWVRQRTGQGFEWIGEIYPGSGNIDYNERFKDKATLTADKSSSTAYMQLSSLTSEDSAVYFCVRGFGYWGQGTTLTVSSAKTTPPSVYPLAPGSAAQTNSMVTLGCLVKGYFPEPVTVTWNSGSLSSGVHTFPAVLQSDLYTLSSSVTVPSSTWPSETVTCNVAHPASSTKVDKKIVPRDCGC
- affinity for the β2AR (in words) (β2AR-TMR; from β2AR-TMR dose-response curves, FIG. 2B): highest affinity; also recorded: relatively high affinity
- fluorescence response of β2AR-TMR (β2AR-TMR; β2AR labeled at C265 with tetramethylrhodamine): largest fluorescence response; also recorded: significantly greater than the response to antibody 9
- binding to denatured β2AR (denatured β2AR): weakest binding to denatured protein; also recorded: bound weakly

- coupling of purified β2AR to purified G protein (β2AR [4]): prevented coupling
B2: Fab 5: Fab fragment of antibody 5 generated by papain cleavage; light chain SEQ ID NO: 1, heavy chain SEQ ID NO: 2 (antibody)
heavy: B1 heavy
light: B1 light
modifications: mus musculis; UNSURE (0)...(0) Fab 5 Heavy chain; UNSURE (0)...(0) Fab5 light chain
- effect on agonist-induced bimane fluorescence change (β2AR [3]): did not restrict the movement of transmembrane segments
- protection of IC3 from trypsin cleavage (β2AR [5]): the 27 kDa band disappears; also recorded: protects the N-terminal end of the loop
